{"source": "patent US20150118233A1", "binders": {"B1": {"name": "Nanobody NC41 (VHH)", "VHH": "EVQLVESGGGLVQAGGSLSISCAASGGSLSNYVLGWFRQAPGKEREFVAAINWRGDITIGPPNVEGRFTISRDNAKNTGYLQMNSLAPDDTAVYYCGAGTPLNPGAYIYDWSYDYWGRGTQVTVSS"}, "B2": {"name": "RSV407 (NC41-15GS-NC41-15GS-NC41) (VHH)", "chain": "EVQLVESGGGLVQAGGSLSISCAASGGSLSNYVLGWFRQAPGKEREFVAAINWRGDITIGPPNVEGRFTISRDNAKNTGYLQMNSLAPDDTAVYYCGAGTPLNPGAYIYDWSYDYWGRGTQVTVSSGGGGSGGGGSGGGGSEVQLVESGGGLVQAGGSLSISCAASGGSLSNYVLGWFRQAPGKEREFVAAINWRGDITIGPPNVEGRFTISRDNAKNTGYLQMNSLAPDDTAVYYCGAGTPLNPGAYIYDWSYDYWGRGTQVTVSSGGGGSGGGGSGGGGSEVQLVESGGGLVQAGGSLSISCAASGGSLSNYVLGWFRQAPGKEREFVAAINWRGDITIGPPNVEGRFTISRDNAKNTGYLQMNSLAPDDTAVYYCGAGTPLNPGAYIYDWSYDYWGRGTQVTVSS"}, "B3": {"name": "Nanobody 191D3 (VHH)", "VHH": "EVQLVESGGGLVQAGGSLRLSCEASGRTYSRYGMGWFRQAPGKEREFVAAVSRLSGPRTVYADSVKGRFTISRDNAENTVYLQMNSLKPEDTAVYTCAAELTNRNSGAYYYAWAYDYWGQGTQVTVSS"}, "B4": {"name": "Nanobody 1E4 (VHH)", "VHH": "B3 VHH with Y29F, R31S, S106P, A112T"}, "B5": {"name": "Nanobody 7B2 (VHH)", "VHH": "EVQLVESGGGLVQAGDSLRLSCAASGRTFSSYAMGWFRQAPGKEREFVAAISWSDGSTYYADSVKGRFTISRDNAKNTVYLQMNSLKPEDTAVYYCAADLTSTNPGSYIYIWAYDYWGQGTQVTVSS"}, "B6": {"name": "Nanobody NC23 (VHH)", "VHH": "EVQLVESGGGLVQPGGSLRLSCAASGRTFSSIAMGWFRQAPGKEREFVAAISWSRGRTFYADSVKGRFIISRDDAANTAYLQMNSLKPEDTAVYYCAVDTASWNSGSFIYDWAYDHWGQGTQVTVSS"}, "B7": {"name": "Nanobody 15H8 (VHH)", "VHH": "EVQLVESGGGLVQAGGSLRLSCAASGRSFSNYVLGWFRQAPGKEREFVAAISFRGDSAIGAPSVEGRFTISRDNAKNTGYLQMNSLVPDDTAVYYCGAGTPLNPGAYIYDWSYDYWGRGTQVTVSS"}, "B8": {"name": "Nanobody 15B3 (VHH)", "VHH": "EVQLVESGGGLVQPGGSLRLSCAASGLTLDYYALGWFRQAPGKEREGVSCISSSDHSTTYTDSVKGRFTISWDNAKNTLYLQMNSLKPGDTAVYYCAADPALGCYSGSYYPRYDYWGQGTQVTVSS"}, "B9": {"name": "Nanobody 191E4 (VHH)", "VHH": "EVQLVESGGGLVQAGGSLRLSCAASGPTFSADTMGWFRQAPGKEREFVATIPWSGGIAYYSDSVKGRFTMSRDNAKNTVDLQMNSLKPEDTALYYCAGSSRIYIYSDSLSERSYDYWGQGTQVTVSS"}, "B10": {"name": "RSV400 (7B2-15GS-7B2-15GS-7B2) (bispecific antibody)", "chain": "EVQLVESGGGLVQAGDSLRLSCAASGRTFSSYAMGWFRQAPGKEREFVAAISWSDGSTYYADSVKGRFTISRDNAKNTVYLQMNSLKPEDTAVYYCAADLTSTNPGSYIYIWAYDYWGQGTQVTVSSGGGGSGGGGSGGGGSEVQLVESGGGLVQAGDSLRLSCAASGRTFSSYAMGWFRQAPGKEREFVAAISWSDGSTYYADSVKGRFTISRDNAKNTVYLQMNSLKPEDTAVYYCAADLTSTNPGSYIYIWAYDYWGQGTQVTVSSGGGGSGGGGSGGGGSEVQLVESGGGLVQAGDSLRLSCAASGRTFSSYAMGWFRQAPGKEREFVAAISWSDGSTYYADSVKGRFTISRDNAKNTVYLQMNSLKPEDTAVYYCAADLTSTNPGSYIYIWAYDYWGQGTQVTVSS"}, "B11": {"name": "RSV106 (7B2-15GS-7B2) (VHH)", "chain": "EVQLVESGGGLVQAGDSLRLSCAASGRTFSSYAMGWFRQAPGKEREFVAAISWSDGSTYYADSVKGRFTISRDNAKNTVYLQMNSLKPEDTAVYYCAADLTSTNPGSYIYIWAYDYWGQGTQVTVSSGGGGSGGGGSGGGGSEVQLVESGGGLVQAGDSLRLSCAASGRTFSSYAMGWFRQAPGKEREFVAAISWSDGSTYYADSVKGRFTISRDNAKNTVYLQMNSLKPEDTAVYYCAADLTSTNPGSYIYIWAYDYWGQGTQVTVSS"}, "B12": {"name": "Synagis® Fab (Fab, part only; not given: Constant regions, biotin sites, V domains shown, not shown: another chain or arm of the molecule)", "VH": "QVTLRESGPALVKPTQTLTLTCTFSGFSLSTSGMSVGWIRQPPGKALEWLADIWWDDKKDYNPSLKSRLTISKDTSKNQVVLKVTNMDPADTATYYCARSMITNWYFDVWGAGTTVTVSS", "VL": "DIQMTQSPSTLSASVGDRVTITCKCQLSVGYMHWYQQKPGKAPKLLIYDTSKLASGVPSRFSGSGSGTEFTLTISSLQPDDFATYYCFQGSGYPFTFGGGTKLEIK"}, "B13": {"name": "RSV116 (NC41-15GS-NC41) (bispecific antibody)", "chain": "EVQLVESGGGLVQAGGSLSISCAASGGSLSNYVLGWFRQAPGKEREFVAAINWRGDITIGPPNVEGRFTISRDNAKNTGYLQMNSLAPDDTAVYYCGAGTPLNPGAYIYDWSYDYWGRGTQVTVSSGGGGSGGGGSGGGGSEVQLVESGGGLVQAGGSLSISCAASGGSLSNYVLGWFRQAPGKEREFVAAINWRGDITIGPPNVEGRFTISRDNAKNTGYLQMNSLAPDDTAVYYCGAGTPLNPGAYIYDWSYDYWGRGTQVTVSS"}, "B14": {"name": "RSV404 (15H8-15GS-15H8-15GS-15H8) (VHH)", "chain": "EVQLVESGGGLVQAGGSLRLSCAASGRSFSNYVLGWFRQAPGKEREFVAAISFRGDSAIGAPSVEGRFTISRDNAKNTGYLQMNSLVPDDTAVYYCGAGTPLNPGAYIYDWSYDYWGRGTQVTVSSGGGGSGGGGSGGGGSEVQLVESGGGLVQAGGSLRLSCAASGRSFSNYVLGWFRQAPGKEREFVAAISFRGDSAIGAPSVEGRFTISRDNAKNTGYLQMNSLVPDDTAVYYCGAGTPLNPGAYIYDWSYDYWGRGTQVTVSSGGGGSGGGGSGGGGSEVQLVESGGGLVQAGGSLRLSCAASGRSFSNYVLGWFRQAPGKEREFVAAISFRGDSAIGAPSVEGRFTISRDNAKNTGYLQMNSLVPDDTAVYYCGAGTPLNPGAYIYDWSYDYWGRGTQVTVSS"}}, "note": "Numbering of substitutions follows the chain as printed."}
{"target": "hRSV FTM- NN protein (membrane anchorless form of the Long fusion protein, 70 kDa) (hRSV strain Long)", "experiment": "SPR (Biacore) on Ftm-NN protein", "units": {"koff": "s⁻¹", "kon": "M⁻¹ s⁻¹"}}
{"binder": "B1", "koff": 0.0067, "kon": "1.7e+06"}
{"substrate": "F protein of hRSV strain B-1 (hRSV strain B-1)", "experiment": "cell-based or functional assay", "units": {"Neutralization IC50": "nM", "Neutralization, ratio to Synagis": "fold"}}
{"binder": "B2", "Neutralization IC50": 0.66, "Neutralization, ratio to Synagis": 3}
{"substrate": "F protein of hRSV strain Long (hRSV strain Long)", "experiment": "cell-based or functional assay", "units": {"Neutralization IC50": "nM", "Neutralization, ratio to Synagis": "fold", "RSV neutralization IC50": "nM", "Neutralization IC50 (first assay)": "nM", "Neutralization IC50 (second assay)": "nM"}}
{"binder": "B2", "Neutralization IC50": 0.0941, "Neutralization, ratio to Synagis": 59}
{"binder": "B3", "RSV neutralization IC50": 253}
{"binder": "B4", "RSV neutralization IC50": 380}
{"binder": "B5", "RSV neutralization IC50": 91}
{"binder": "B1", "Neutralization IC50 (first assay)": 202, "Neutralization IC50 (second assay)": 122, "RSV neutralization IC50": 58}
{"binder": "B6", "RSV neutralization IC50": 144}
{"binder": "B7", "RSV neutralization IC50": 200}
{"target": "hRSV FTM- NN protein (membrane anchorless form of the Long fusion protein, 70 kDa) (hRSV strain Long)", "experiment": "SPR (Biacore T100), FTM- NN amine-coupled, 1:1 Langmuir fit", "units": {"Kd": "nM", "koff": "s⁻¹", "kon": "M⁻¹ s⁻¹"}}
{"binder": "B8", "Kd": 0.67, "koff": 0.00027, "kon": 410000}
{"binder": "B9", "Kd": 0.27, "koff": 0.00015, "kon": 570000}
{"binder": "B3", "Kd": 1.9, "koff": 0.0028, "kon": "1.5e+06"}
{"binder": "B4", "Kd": 1.6, "koff": 0.0013, "kon": 800000}
{"binder": "B5", "Kd": 1.1, "koff": 0.00065, "kon": 570000}
{"binder": "B1", "Kd": 8.1, "koff": 0.0067, "kon": 820000}
{"binder": "B6", "Kd": 0.92, "koff": 0.00074, "kon": 800000}
{"binder": "B7", "Kd": 16, "koff": 0.021, "kon": "1.2e+06"}
{"substrate": "F protein of Long escape mutant R7C2/1 (K272E in antigenic site II) (hRSV strain Long escape mutant)", "experiment": "ELISA on extract of HEp-2 cells infected with R7C2/1", "units": {"binding (% reactivity relative to Long wild type)": "%"}}
{"binder": "B8", "binding (% reactivity relative to Long wild type)": "> 75"}
{"binder": "B10", "binding (% reactivity relative to Long wild type)": 13}
{"binder": "B9", "binding (% reactivity relative to Long wild type)": "> 75"}
{"binder": "B11", "binding (% reactivity relative to Long wild type)": 4.4}
{"target": "hRSV FTM- NN protein (membrane anchorless form of the Long fusion protein, 70 kDa) (hRSV strain Long)", "experiment": "competition ELISA on coated FTM- NN; competitor biotinylated Synagis Fab", "units": {"EC50": "nM"}}
{"binder": "B3", "EC50": 5.9}
{"binder": "B4", "EC50": 4.5}
{"binder": "B5", "EC50": 1.9}
{"binder": "B1", "EC50": 32}
{"binder": "B6", "EC50": 2.3}
{"binder": "B7", "EC50": 39}
{"substrate": "F protein of hRSV strain Long (hRSV strain Long)", "experiment": "binding ELISA on coated hRSV (Hytest), anti-VHH detection", "units": {"EC50": "nM"}}
{"binder": "B8", "EC50": 0.058}
{"binder": "B9", "EC50": 0.083}
{"binder": "B3", "EC50": 0.15}
{"binder": "B4", "EC50": 0.066}
{"binder": "B5", "EC50": 0.09}
{"binder": "B1", "EC50": 0.41}
{"binder": "B6", "EC50": 0.1}
{"binder": "B7", "EC50": 0.83}
{"target": "hRSV FTM- NN protein (membrane anchorless form of the Long fusion protein, 70 kDa) (hRSV strain Long)", "experiment": "SPR (Biacore) on Ftm-NN protein; Table B-5 run (selected NC41 variants), separate from Table B-1", "units": {"Kd": "nM"}}
{"binder": "B1", "Kd": 4}
{"target": "hRSV FTM- NN protein (membrane anchorless form of the Long fusion protein, 70 kDa) (hRSV strain Long)", "experiment": "Alphascreen competition: FTM- NN (0.3 nM) bridged by biotinylated Synagis Fab and 101F Fab acceptor beads", "units": {"IC50": "nM"}}
{"binder": "B12", "IC50": 0.597}
{"target": "hRSV FTM- NN protein (membrane anchorless form of the Long fusion protein, 70 kDa) (hRSV strain Long)", "experiment": "binding ELISA on immobilised FTM- protein; detection with rabbit anti-VHH and HRP goat anti-rabbit", "units": {"EC50 (read off the curve)": "nM"}}
{"binder": "B10", "EC50 (read off the curve)": 0.3}
{"binder": "B2", "EC50 (read off the curve)": 0.2}
{"binder": "B5", "EC50 (read off the curve)": 0.3}
{"binder": "B13", "EC50 (read off the curve)": 0.3}
{"binder": "B14", "EC50 (read off the curve)": 0.3}
{"binder": "B1", "EC50 (read off the curve)": 1}
{"binder": "B7", "EC50 (read off the curve)": 1}
